From publication PMC2572730, “Structural Basis for the Recognition of Histone H4 by the Histone-Chaperone RbAp46” (Structure(London, England:1993), 2008) come the findings set out here.

Assay [1] has as its target T1, RbAp46 (pRB-associated protein p46), human, recombinant (human, UniProt Q16576 1-411).
T1 construct: RbAp46 (RBBP7), human; also called RBBP7; RbAb46; source: recombinant, expressed and purified as described previously (Verreault et al., 1998; Berger et al., 2004)
The assay can be described thus: SPR; RbAp46 crosslinked to a CM5 chip, N-terminal histone H4 peptide as analyte; 10 mM HEPES (pH 7.4), 150 mM NaCl, 0.0005% (v/v) Surfactant P20. The conditions noted are these: both partners purified. In general terms: Surface plasmon resonance follows binding to a sensor surface in real time, without labels.

Assay [2] has as its target T1, RbAp46 (pRB-associated protein p46), …. Briefly: other fluorescence titration; intrinsic tryptophan fluorescence of 45 nM RbAp46, increasing H3/H4 or H4 peptide (16-41); 50 mM Tris-HCl (pH 7.5), 200 mM NaCl, 5 mM DTT, 25°C; excitation 295 nm, emission 435 nm; single binding-site model; KD for H3/H4 called apparent. To be noted: both partners purified.

T1 sequence (Q16576 1-411): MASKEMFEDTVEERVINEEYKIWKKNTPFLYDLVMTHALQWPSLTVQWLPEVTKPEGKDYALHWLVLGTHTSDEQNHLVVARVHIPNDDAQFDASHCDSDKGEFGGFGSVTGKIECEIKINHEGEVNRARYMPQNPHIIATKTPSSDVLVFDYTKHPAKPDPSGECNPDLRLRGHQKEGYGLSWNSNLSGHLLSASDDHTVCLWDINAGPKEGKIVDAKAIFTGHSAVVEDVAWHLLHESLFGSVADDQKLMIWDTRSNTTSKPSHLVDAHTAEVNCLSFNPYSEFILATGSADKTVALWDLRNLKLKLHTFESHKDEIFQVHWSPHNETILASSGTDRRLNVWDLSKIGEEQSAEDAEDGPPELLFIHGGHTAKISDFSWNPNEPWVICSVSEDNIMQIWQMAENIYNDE

B1: synthetic histone H4 peptide (residues 16-41) (peptide)
peptide: not shown
notes: histone H4 residues 16-41; also called N-terminal histone H4 peptide; H4(16-41); source: synthetic peptide
Turning to B1, the Kd in assay [1] was about 1000 nM; in assay [2], 1100 nM.
